Measurements from US20240270851A1 (US Dept. of Health and Human Services, published 2024).

Legend:
mouse PD-L1-His [1] = molecular target: T1, mouse PD-L1-His (mouse, UniProt Q9EP73 19-237); assay: monoclonal phage ELISA
T1 construct: Bought recombinant protein; also called mPD-L1; recombinant mouse PD-L1-His; not shown: His tag

[2] = molecular target: T2, mouse PD-L1 on murine melanoma cell line B8979HC (mouse, UniProt Q9EP73 19-290); assay: flow cytometry on murine melanoma cells B8979HC (column 'Mouse')
T2 construct: whole, on cells; also called native PD-L1; mouse antigen
T2 sequence (Q9EP73 19-290): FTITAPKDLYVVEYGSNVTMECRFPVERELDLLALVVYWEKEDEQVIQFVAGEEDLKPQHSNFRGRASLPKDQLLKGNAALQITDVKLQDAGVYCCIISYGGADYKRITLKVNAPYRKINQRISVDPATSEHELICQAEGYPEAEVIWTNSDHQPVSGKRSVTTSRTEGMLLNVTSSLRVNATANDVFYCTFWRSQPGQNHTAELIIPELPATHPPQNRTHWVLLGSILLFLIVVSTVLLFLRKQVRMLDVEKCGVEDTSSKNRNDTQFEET

human B7-H3 = molecular target: T3, human B7-H3 (human, UniProt Q5ZPR3 29-461, limits assumed); assay: ELISA on coated human B7-H3
T3 sequence (looked up): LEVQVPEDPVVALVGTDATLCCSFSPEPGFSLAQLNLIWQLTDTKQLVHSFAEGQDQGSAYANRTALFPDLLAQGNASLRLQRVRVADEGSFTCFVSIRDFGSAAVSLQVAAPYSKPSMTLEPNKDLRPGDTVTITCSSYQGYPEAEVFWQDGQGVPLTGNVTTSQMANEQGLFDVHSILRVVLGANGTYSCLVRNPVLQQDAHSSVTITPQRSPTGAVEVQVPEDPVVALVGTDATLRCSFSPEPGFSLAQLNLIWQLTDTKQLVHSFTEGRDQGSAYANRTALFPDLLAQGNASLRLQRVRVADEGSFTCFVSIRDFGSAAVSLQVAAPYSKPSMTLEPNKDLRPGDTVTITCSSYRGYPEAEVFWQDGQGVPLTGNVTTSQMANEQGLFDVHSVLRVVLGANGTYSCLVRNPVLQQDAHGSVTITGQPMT

mouse PD-L1-His [3] = molecular target: T1, mouse PD-L1-His; assay: monoclonal phage ELISA on coated antigen, detected with anti-M13-HRP
Description: (§1) The phage ELISA was performed as previously described (Feng et al., Antib Ther 2019; 2(1):1-11). Briefly, a Nunc 96-well Maxisorp plate was coated with 5 μg/ml antigenic proteins, including mouse PD-L1-His, mouse PD-L1-hFc, human PD-L1-His, human PD-L1-hFc, and the irrelevant antigen human IgG and PBS in 50 μl PBS per well overnight at 4° C. The plate was blocked with 2% BSA in PBS for 1 hour at room temperature. Pre-blocked phage supernatant was then added into the plate. The binding activity was determined with a horseradish peroxidase (HRP)-conjugated mouse anti-M13 antibody (GE Healthcare).

mouse PD-L1-hFc = molecular target: T4, mouse PD-L1-hFc (mouse, UniProt Q9EP73 19-237, limits assumed); assay: as above
T4 construct: also called mPD-L1 hFc-tag format; not shown: human Fc tag (hFc)
T4 sequence (Q9EP73 19-237 limits assumed): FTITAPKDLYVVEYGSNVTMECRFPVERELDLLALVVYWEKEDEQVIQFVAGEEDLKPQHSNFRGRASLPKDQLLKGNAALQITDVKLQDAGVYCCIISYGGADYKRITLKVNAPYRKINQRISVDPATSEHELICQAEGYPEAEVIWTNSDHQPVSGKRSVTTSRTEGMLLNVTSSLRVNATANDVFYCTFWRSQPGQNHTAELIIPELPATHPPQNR
Description: as §1

human PD-L1-His [4] = molecular target: T5, human PD-L1-His (human, UniProt Q9NZQ7 19-238); assay: BLI (Octet), VNAR-hFc with hPD-L1-His, Ni-NTA sensor; at 100 nM; at a concentration of 100 nM (printed '100 nm')
T5 construct: also called hPD-L1-His; hPD-L1 His-tag format; not shown: His tag
T5 sequence (Q9NZQ7 19-238 limits assumed): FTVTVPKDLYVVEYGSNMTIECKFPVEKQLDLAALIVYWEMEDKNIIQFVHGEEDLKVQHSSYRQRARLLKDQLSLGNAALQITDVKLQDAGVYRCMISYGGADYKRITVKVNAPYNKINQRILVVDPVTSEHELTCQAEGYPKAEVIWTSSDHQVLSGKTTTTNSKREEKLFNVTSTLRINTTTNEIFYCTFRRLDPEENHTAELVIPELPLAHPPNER

human PD-L1-His [5] = molecular target: T5, human PD-L1-His; assay: BLI (Octet), VNAR-hFc with hPD-L1-His, Ni-NTA sensor; at 50 nM; at a concentration of 50 nM
[6] = molecular target: T6, peptide #19 of the hPD-L1 ECD peptide array (human); assay: peptide-scanning ELISA on 24 coated hPD-L1 ECD peptides, detected with anti-flag-HRP
T6 construct: 18-mer synthetic peptide from human PD-L1
T6 peptide: TTNSKREEKLFNVTSTLR
Description: To predict the binding epitope of anti-PD-L1 nanobodies, a total of 24 peptides were designed based on the hPD-L1 ECD amino acid sequence. Each synthesized peptide is 18 amino acids in length with 9 amino acids of overlap, which allows the minimum antigenic region of hPD-L1 ECD recognized by each VNAR to be narrowed down by step-by-step peptide mapping onto a 9-mer peptide epitope. The ELISA was performed as previously described. In brief, the 24 peptides were coated into individual wells of a 96-well Maxisorp plate. […] The binding activity was determined by ODA450.

human PD-L1-hFc = molecular target: T7, human PD-L1-hFc (human, UniProt Q9NZQ7 19-238); assay: monoclonal phage ELISA on coated antigen, detected with anti-M13-HRP
T7 construct: also called hPD-L1 hFc-tag format; not shown: human Fc tag (hFc)
T7 sequence (Q9NZQ7 19-238 limits assumed): as above
Description: as §1

human PD-L1-His [7] = molecular target: T5, human PD-L1-His; assay: as above
Description: as §1

[8] = molecular target: T8, human PD-L1 on MDA-MB-231 cells (human, UniProt Q9NZQ7 19-290); assay: flow cytometry on MDA-MB-231 cells (column 'Human')
T8 construct: whole, on cells; also called native PD-L1; human antigen
T8 sequence (Q9NZQ7 19-290): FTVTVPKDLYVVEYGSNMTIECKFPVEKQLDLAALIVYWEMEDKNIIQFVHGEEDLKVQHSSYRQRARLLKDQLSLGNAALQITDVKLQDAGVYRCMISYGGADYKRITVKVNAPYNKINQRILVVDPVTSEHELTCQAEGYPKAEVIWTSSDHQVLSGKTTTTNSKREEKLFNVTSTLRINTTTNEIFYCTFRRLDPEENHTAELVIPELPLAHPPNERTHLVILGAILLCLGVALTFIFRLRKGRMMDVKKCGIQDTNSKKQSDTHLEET

[9] = molecular target: T9, human PD-L1 (hPD-L1) protein (human, UniProt Q9NZQ7 19-238); assay: BLI (Octet), PD-L1 protein loaded on a Ni-NTA biosensor, VNAR binding step
T9 construct: also called hPD-L1 ECD
T9 sequence (Q9NZQ7 19-238 limits assumed): as the sequence (Q9NZQ7 19-238 limits assumed) above

T1 sequence (Q9EP73 19-237 limits assumed): as the sequence (Q9EP73 19-237 limits assumed) above

B1: Shark VNAR A9 (VNAR)
VNAR: ARVDQTPQTITKETGESLTINCVLRDTNYALGSTYWYRKKLGSTNEESISKGGRYVETVNSGSKSFSLRINDLTVEDSGTYRCKNTSPWLTYSPWTVSGQTSYGGGTVVTVN
binding result (mouse PD-L1-His [1]): binds

B2: Shark VNAR A2 (VNAR)
VNAR: ARVDQTPRSVTKETGESLTINCVLRDTSYALGSTYWYRKKLGSTNEESISKGGRYVETVNSGSKTFSLRINDLTVEDSGTYRCKVQTTWSYLSPYKIEFATVYGGGTVVTVN
binding result (mouse PD-L1-His [1]): binds

B3: Shark VNAR B2 (VNAR)
VNAR: ARVDQTPRSVTKETGESLTINCVLRDSSYALGSTYWYRKKSGSTNEESISKGGRYVETVNSGSKSFSLRINDLTVEDSGTYRCKYTSRLRREGPLSWDGNTVYGGGTVVTVN
notes: Shark VNAR single-domain antibody from the semi-synthetic 18AA CDR3 library; also called B2 nanobody; B2 clone
binding result [2]: binds | binding result (human B7-H3): no binding | binding result (mouse PD-L1-His [3]): binds | binding result (mouse PD-L1-hFc): binds

B4: B2-hFc (Fc fusion)
chain: ARVDQTPRSVTKETGESLTINCVLRDSSYALGSTYWYRKKSGSTNEESISKGGRYVETVNSGSKSFSLRINDLTVEDSGTYRCKYTSRLRREGPLSWDGNTVYGGGTVVTVN
notes: also called B2 VNAR-hFc fusion protein; not shown: human Fc (hFc)
Kd (human PD-L1-His [4]): 1.7 nM | Kd (human PD-L1-His [5]): 1.4 nM

B5: B2-His-flag (VNAR)
VNAR: ARVDQTPRSVTKETGESLTINCVLRDSSYALGSTYWYRKKSGSTNEESISKGGRYVETVNSGSKSFSLRINDLTVEDSGTYRCKYTSRLRREGPLSWDGNTVYGGGTVVTVN
notes: Soluble VNAR B2 with His and flag tags, used at 5 ug/ml in the peptide-scanning ELISA; also called nanobody B2 (peptide scanning); not shown: His tag and flag tag
binding result [6]: binds

B6: Shark VNAR C4 (VNAR)
VNAR: ARVDQTPRSVTKETGESLTINCVLRDTNYALGSTYWYRKKSGSTNEESISKGGRYVETVNSGSKSFSLRINDLTVEDSGTYRCKQSASLWIPNLLRWVPVISYGGGTVVTVN
binding result (mouse PD-L1-His [1]): binds

B7: Shark VNAR D12 (VNAR)
VNAR: ARVDQTPRSVTKETGESLTINCVLRDTNYALGSTYWYRKKSGSTNEESISKGGRYVETVNSGSKSFSLRINDLTVEDSGTYRCKHQSSWRRQAPRVMEMQTLYGGGTVVTVN
binding result (mouse PD-L1-His [1]): binds

B8: Shark VNAR A11 (VNAR)
VNAR: ARVDQTPRSVTKETGESLTINCVLRDTSYALGSTYWYRKKSGSTNEESISKGGRYVETVNSGSKSFSLRINDLTVEDSGTYRCKFKSNTEFLNPLTVSMSTIYGGGTVVTVN
notes: Shark VNAR single-domain antibody
binding result (mouse PD-L1-His [3]): binds | binding result (mouse PD-L1-hFc): binds

B9: A11-His-flag (VNAR)
VNAR: ARVDQTPRSVTKETGESLTINCVLRDTSYALGSTYWYRKKSGSTNEESISKGGRYVETVNSGSKSFSLRINDLTVEDSGTYRCKFKSNTEFLNPLTVSMSTIYGGGTVVTVN
notes: Soluble VNAR A11 with His and flag tags, used at 5 ug/ml in the peptide-scanning ELISA; also called nanobody A11 (peptide scanning); not shown: His tag and flag tag
binding result [6]: no binding (tested: 5 µg/ml)

B10: Shark VNAR A1 (VNAR)
VNAR: ARVDQTPRSVTKETGESLTINCVLRDTNYALGSTYWYRKKSGSTNEESISKGGRYVETVNSGSKSFSLRINDLTVEDSGTYRCKTSSKPLLVSHNVWSAWTEYGGGTVVTVN
binding result (mouse PD-L1-His [1]): binds

B11: Shark VNAR A3 (VNAR)
VNAR: ARVDQTPQTITKETGESLTINCVLRDSNYALGSTYWYRKKSGSTNEESISKGGRYVETVNSGSKSFSLRINDLTVEDSGTYRCKTQKAIPCNMNGYVCGVTIYGGGTVVTVN
binding result (mouse PD-L1-His [1]): binds

B12: Shark VNAR A6 (VNAR)
VNAR: ARVDQTPQTITKETGESLTINCVLRDTSYALGSTYWYRKKSGSTNEESISKGGRYVETVNSGSKSFSLRINDLRVEDSGTYRCKYSSSWQKATEGVWEAMTEYGGGTVVTVN
binding result (mouse PD-L1-His [1]): binds

B13: Shark VNAR A7 (VNAR)
VNAR: ARVDQTPRSVTKETGESLTINCVLRDTSYALGSTYWYRKKLGSTNEESISKGGRYVETVNSGSKSFSLRINDLTVEDSGTYRCKMNQRYPCDNNSWWSLYCGTTVYGGGTVVTVN
binding result (mouse PD-L1-His [1]): binds

B14: Shark VNAR A10 (VNAR)
VNAR: ARVDQTPRSVTKETGESLTINCVLRDTNYALGSTYWYRKKLGSTNEESISKGGRYVETVNSGSKSFSLRINDLTVEDSGTYRCKSTTPWNNLTSFTSERVTIYGGGTVVTVN
binding result (mouse PD-L1-His [1]): binds

B15: Shark VNAR F5 (VNAR)
VNAR: ARVDQTPRSVTKETGESLTINCVLRDTNYALGSTYWYRKKLGSTNEESISKGGRYVETVNSGSKSFSLRINDLTVEDSGTYRCKNLGHPMYIAGAICRPLPIYGGGTVVTVN
notes: as for B8
binding result [2]: binds | binding result (mouse PD-L1-His [3]): binds | binding result (mouse PD-L1-hFc): binds | binding result (human PD-L1-hFc): binds | binding result (human PD-L1-His [7]): binds | binding result [8]: binds

B16: F5-hFc (Fc fusion)
chain: ARVDQTPRSVTKETGESLTINCVLRDTNYALGSTYWYRKKLGSTNEESISKGGRYVETVNSGSKSFSLRINDLTVEDSGTYRCKNLGHPMYIAGAICRPLPIYGGGTVVTVN
notes: VNAR-hFc fusion used on the Octet; also called F5 VNAR-hFc fusion protein; not shown: human Fc (hFc)
binding result [9]: binds

B17: F5-His-flag (VNAR)
VNAR: ARVDQTPRSVTKETGESLTINCVLRDTNYALGSTYWYRKKLGSTNEESISKGGRYVETVNSGSKSFSLRINDLTVEDSGTYRCKNLGHPMYIAGAICRPLPIYGGGTVVTVN
notes: Soluble VNAR F5 with His and flag tags, used at 5 ug/ml in the peptide-scanning ELISA; also called nanobody F5 (peptide scanning); not shown: His tag and flag tag
binding result [6]: binds
